{"source": "patent US20080247951A1", "about": "(Genentech, published 2008)", "key": {"[1]": {"biological_target": "T1, human Robo4 expressed endogenously on HUVEC cells (human, UniProt Q8WZ75 28-1007)", "T1 sequence": "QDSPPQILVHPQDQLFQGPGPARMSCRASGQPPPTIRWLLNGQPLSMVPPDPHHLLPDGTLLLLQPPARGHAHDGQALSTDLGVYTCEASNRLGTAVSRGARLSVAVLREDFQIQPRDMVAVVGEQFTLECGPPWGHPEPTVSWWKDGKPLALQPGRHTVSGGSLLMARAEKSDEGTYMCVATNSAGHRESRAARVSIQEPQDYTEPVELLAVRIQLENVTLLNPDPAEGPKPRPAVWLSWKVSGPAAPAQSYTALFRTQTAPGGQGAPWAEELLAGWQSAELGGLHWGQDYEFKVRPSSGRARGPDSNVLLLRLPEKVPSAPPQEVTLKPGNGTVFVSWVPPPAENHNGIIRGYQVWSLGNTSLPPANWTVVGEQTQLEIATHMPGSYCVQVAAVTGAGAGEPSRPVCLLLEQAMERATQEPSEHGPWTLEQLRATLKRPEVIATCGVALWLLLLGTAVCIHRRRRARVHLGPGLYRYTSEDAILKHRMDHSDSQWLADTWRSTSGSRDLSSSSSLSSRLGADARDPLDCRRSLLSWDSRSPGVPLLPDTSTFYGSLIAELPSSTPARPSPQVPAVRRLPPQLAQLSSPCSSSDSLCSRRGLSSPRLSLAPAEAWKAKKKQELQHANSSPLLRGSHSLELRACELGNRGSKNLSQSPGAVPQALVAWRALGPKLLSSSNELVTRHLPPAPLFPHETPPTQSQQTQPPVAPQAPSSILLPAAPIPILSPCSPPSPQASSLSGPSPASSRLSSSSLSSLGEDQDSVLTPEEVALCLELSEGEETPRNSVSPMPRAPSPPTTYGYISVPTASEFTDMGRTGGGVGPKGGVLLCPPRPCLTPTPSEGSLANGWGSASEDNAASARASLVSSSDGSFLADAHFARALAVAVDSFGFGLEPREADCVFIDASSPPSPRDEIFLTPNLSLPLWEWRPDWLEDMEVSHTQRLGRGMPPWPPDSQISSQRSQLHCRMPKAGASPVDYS", "assay": "FACS on HUVEC cells, Alexa 488 detection"}, "[2]": {"biological_target": "T2, murine Robo4 expressed endogenously on MS1 cells (mouse, UniProt Q8C310 28-1012)", "T2 construct": "whole, on cells", "T2 sequence (looked up)": "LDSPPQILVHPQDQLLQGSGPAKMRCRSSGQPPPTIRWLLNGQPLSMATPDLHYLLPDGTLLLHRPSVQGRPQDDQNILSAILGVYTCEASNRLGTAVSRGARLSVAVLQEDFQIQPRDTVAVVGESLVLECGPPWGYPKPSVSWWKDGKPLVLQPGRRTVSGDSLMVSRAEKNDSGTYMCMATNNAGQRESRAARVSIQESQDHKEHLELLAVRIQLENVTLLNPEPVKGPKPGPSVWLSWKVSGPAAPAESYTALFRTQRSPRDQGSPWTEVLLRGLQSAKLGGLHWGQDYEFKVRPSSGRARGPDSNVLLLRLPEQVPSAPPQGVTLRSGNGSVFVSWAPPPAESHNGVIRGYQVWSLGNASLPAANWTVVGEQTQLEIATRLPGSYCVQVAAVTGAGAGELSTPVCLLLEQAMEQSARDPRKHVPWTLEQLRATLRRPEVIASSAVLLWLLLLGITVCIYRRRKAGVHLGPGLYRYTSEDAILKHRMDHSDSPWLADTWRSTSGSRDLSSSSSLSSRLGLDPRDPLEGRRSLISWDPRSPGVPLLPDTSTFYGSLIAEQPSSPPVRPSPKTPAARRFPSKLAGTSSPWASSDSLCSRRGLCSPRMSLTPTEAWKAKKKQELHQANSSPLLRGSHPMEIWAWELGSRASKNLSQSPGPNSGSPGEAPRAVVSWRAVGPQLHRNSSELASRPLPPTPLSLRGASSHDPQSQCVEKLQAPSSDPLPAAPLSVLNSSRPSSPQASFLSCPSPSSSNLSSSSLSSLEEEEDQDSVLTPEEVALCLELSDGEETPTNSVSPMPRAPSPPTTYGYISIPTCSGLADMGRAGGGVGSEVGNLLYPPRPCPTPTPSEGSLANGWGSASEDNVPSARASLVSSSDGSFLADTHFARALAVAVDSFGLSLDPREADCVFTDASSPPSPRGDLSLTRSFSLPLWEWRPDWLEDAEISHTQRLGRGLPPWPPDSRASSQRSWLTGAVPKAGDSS", "assay": "FACS on MS1 cells, Alexa 488 detection"}}, "data": [{"binder": "anti-Robo4 antibody YW71.22 (full length) (antibody, V domains shown, also called parent antibody) VH: EVQLVESGGGLVQPGGSLRLSCAASGFTINGYYIHWVRQAPGKGLEWVGFIYPAGGDTDYADSVKGRFTISADTSKNTAYLQMNSLRAEDTAVYYCARLIGNKFGWSSYGMDYWGQGTLVTVSS VL: DIQMTQSPSSLSASVGDRVTITCRASQDVSTAVAWYQQKPGKAPKLLIYSASFLYSGVPSRFSGSGSGTDFTLTISSLQPEDFATTYCQQSYTTPPTFGQGTKVEIKR", "values": [{"measurement": "binding result", "setting": "[1]", "value": "binds"}, {"measurement": "binding result", "setting": "[2]", "value": "binds"}]}]}
